Biological target: TonB_(ΔTMD) L194C labeled with BODIPY FL (Escherichia coli) (UniProt P02929)
Assay: fluorescence polarisation

“BtuB with bound colicin E3 receptor-binding fragment (ColE3R) (from UniProt P06129 21-614; P00646 1-551) (complex)” showed a Kd of 1500 nM.

Source: article PMC3630801
